From US20240317847A1 (Bayer, published 2024)
Numbering of substitutions follows the chain as printed. Values belong to the binder of their own block, whether it stands above or below them.

Columns and labels:
murine IL-11 [1] = biological target: T1, murine IL-11 (mouse, UniProt P47873 22-199); test: Tri-complex ELISA, mIL-11 + mIL-11Ra-Fc + mgp130-Fc, inhibition of complex formation
T1 construct: Invigate recombinant protein; biotinylated when immobilized in the Di-complex ELISA; also called mIL11; mIL-11
T1 sequence: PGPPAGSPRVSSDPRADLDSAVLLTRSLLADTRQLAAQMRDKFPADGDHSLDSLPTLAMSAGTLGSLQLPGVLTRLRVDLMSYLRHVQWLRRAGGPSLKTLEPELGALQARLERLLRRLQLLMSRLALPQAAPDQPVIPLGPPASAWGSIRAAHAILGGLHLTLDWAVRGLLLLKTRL
Procedure: In a first step, 25 μl of goat anti human IgG (Sigma, #12136), diluted 1:1000 in coating buffer (Candor, #121125) was coated on the plate at 4° C. overnight. Next day, the plate was washed one time with 50 μl PBST and then blocked with 50 μl SmartBlock (Candor, #113125) for one hour at room temperature (RT). […] After three additional washes of the coated and blocked microtiter plate with PBS-T, 25 μl of each mixture were added and the assay plate was incubated for one hour at room temperature. After three additional washes, anti-mouse-gp130 biotinylated antibody (R&D, #BAF468) or anti-human gp130 biotinylated antibody (R&D, #BAF228), both 1:1000 in 10% SmartBlock PBS-T, was added and incubated for 1 hour at RT. After three additional washes, a Streptavidin-Peroxidase conjugate (Sigma, #S5512) 1:1000 in SmartBlock PBS-T was added and incubated for one hour at room temperature. After a final three washes, AmplexRed (Fisher Scientific, A12222), 1/1000 in PBS, 0,003% H₂O₂, was added as substrate and incubated for 15 min at RT in the dark. Then, the fluorescence was measured with a plate reader at 535/595 nm. Signals from dose responses were used to calculate IC50 values using GraphPad Prism software. Efficacy was calculated as [(signal measured at lowest antibody concentration−signal measured at the highest antibody concentration)×100] divided by (signal measured at lowest antibody concentration−signal measured in the absence of antibody at an IL11 concentration of 8.2E-11 [M]).
IgG converted antibodies were subjected to the experimental assay procedure described in Example 19 and IC50 [M], respectively efficacy (%) were calculated accordingly.

cynomolgus IL-11 [2] = biological target: T2, cynomolgus IL-11 (cynomolgus, UniProt P20808 22-199); test: cell-based or functional assay
T2 sequence: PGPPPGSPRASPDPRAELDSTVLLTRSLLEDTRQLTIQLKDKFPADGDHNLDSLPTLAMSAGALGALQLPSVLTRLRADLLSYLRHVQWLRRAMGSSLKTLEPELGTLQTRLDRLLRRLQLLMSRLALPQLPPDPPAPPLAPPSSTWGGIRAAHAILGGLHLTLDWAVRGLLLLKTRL

murine IL-11 [3] = biological target: T1, murine IL-11; test: cell-based or functional assay
rat IL-11 [4] = biological target: T3, rat IL-11 (rat, UniProt Q99MF5 22-199); test: cell-based or functional assay
T3 sequence: T1 sequence with S50N, L84F, G94A, V137A, I138V

human IL-11 = biological target: T4, human IL-11 (human, UniProt P20809 22-199); test: cell-based or functional assay
T4 sequence: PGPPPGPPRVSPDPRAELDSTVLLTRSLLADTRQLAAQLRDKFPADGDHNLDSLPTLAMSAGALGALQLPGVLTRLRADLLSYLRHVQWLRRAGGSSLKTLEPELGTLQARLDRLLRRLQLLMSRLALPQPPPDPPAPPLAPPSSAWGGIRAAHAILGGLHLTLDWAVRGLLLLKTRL

murine IL-11 [5] = biological target: T1, murine IL-11; test: SPR (Biacore), 37 C, antibody captured via anti-Fc, IL-11 as analyte
Procedure: (§1) To assess the binding kinetics and affinity of anti-IL-11 bispecific antibodies as well as their species cross-reactivity profile, binding assays were conducted using surface plasmon resonance (SPR). […] Antibodies were captured either via anti-human Fc IgGs (“Human antibody capture kit”, Order No. BR100839, Cytiva) or via anti-mouse Fc IgGs (“Mouse antibody capture kit, Order No. BR100383, Cytiva) covalently amine coupled to a Series S CM5 sensor chip (Cytiva) depending on the isotype. The amine coupling was carried out according to the manufacturer's instructions using 1-ethyl-3-(3-dimethylaminopropyl) carbodiimide hydrochloride (EDC), N-hydroxysuccinimide (NHS) and ethanolamine HCl, pH 8.5 (“Amine Coupling Kit” BR-1000-50, Cytiva.). Human, mouse, cynomolgus or rat IL-11 was used as analyte at several dilutions within the concentration range from 0.05-200 nM. For binding assays with only one concentration 200 nM IL-11 was used. The sensor surface was regenerated with glycine pH 1.7 after each antigen injection. Obtained sensorgrams were double referenced (subtraction of reference flow cell signal and buffer injection) and were fitted to a 1:1 Langmuir binding model to derive kinetic data using the Biacore T200 Evaluation software or the Biacore Insight software.
(§2) If no value is reported, there was either no binding or very low binding and multiphasic binding behavior.

cynomolgus IL-11 [6] = biological target: T2, cynomolgus IL-11; test: as above
Procedure: as §1, §2

rat IL-11 [7] = biological target: T3, rat IL-11; test: as above
Procedure: as §1, §2

- IC50 (murine IL-11 [1]): 33 nM
- Efficacy (%), Stat3 reporter gene assay (cynomolgus IL-11 [2]): 47.7%
- Efficacy (%), Stat3 reporter gene assay (murine IL-11 [3]): 59.4%
- IC50, Stat3 reporter gene assay (murine IL-11 [3]): 16 nM
- Efficacy (%), Stat3 reporter gene assay (rat IL-11 [4]): 31.8%
- Efficacy (%), Stat3 reporter gene assay (human IL-11): 47.8%
- Kd (murine IL-11 [5]): 41 nM
B1: TPP-18087 (antibody, mouse IgG1, V domains shown)
VH: EVQLLESGGGLVQPGGSLRLSCAASGFTFSHYDMNWLRQAPGKGLEWVGVISYDGSNKFYADFVKGRFTISRDNSKNTLYLQMNSLRAEDTAVYYCARTPGSHFDYWGQGTLVTVSS
VL: QSVLTQPPSASGTPGQRVTISCSGSSSNIGNNAVNWYQQLPGTAPKLLIYYDDLLPSGVPDRFSGSKSGTSASLAISGLRSEDEADYYCSAWDDSLNGVVFGGGTKLTVLG
notes: mIgG1, Lambda

- Efficacy (%) (murine IL-11 [1]): 84.9%
- IC50 (murine IL-11 [1]): 3.9 nM
- Efficacy (%), Stat3 reporter gene assay (cynomolgus IL-11 [2]): 70%
- IC50, Stat3 reporter gene assay (cynomolgus IL-11 [2]): 4.1 nM
- Efficacy (%), Stat3 reporter gene assay (murine IL-11 [3]): 93.6%
- IC50, Stat3 reporter gene assay (murine IL-11 [3]): 1.2 nM
- Efficacy (%), Stat3 reporter gene assay (rat IL-11 [4]): 94%
- IC50, Stat3 reporter gene assay (rat IL-11 [4]): 1.8 nM
- Efficacy (%), Stat3 reporter gene assay (human IL-11): 46.1%
- IC50, Stat3 reporter gene assay (human IL-11): 6.5 nM
- Kd (cynomolgus IL-11 [6]): 5 nM
- Kd (murine IL-11 [5]): 0.41 nM
- Kd (rat IL-11 [7]): 0.58 nM
B2: TPP-18068 (antibody, mouse IgG1)
heavy: EVQLLESGGGLVQPGGSLRLSCAASGFTFSSYGMHWVRQAPGKGLEWVSVISYDGSYKYYADSVKGRFTISRDNSKNTLYLQMNSLRAEDTAVYYCAAGVPDYWGQGTLVTVSSAKTTPPSVYPLAPGSAAQTNSMVTLGCLVKGYFPEPVTVTWNSGSLSSGVHTFPAVLQSDLYTLSSSVTVPSSTWPSETVTCNVAHPASSTKVDKKIVPRDCGCKPCICTVPEVSSVFIFPPKPKDVLTITLTPKVTCVVVDISKDDPEVQFSWFVDDVEVHTAQTQPREEQFNSTFRSVSELPIMHQDWLNGKEFKCRVNSAAFPAPIEKTISKTKGRPKAPQVYTIPPPKEQMAKDKVSLTCMITDFFPEDITVEWQWNGQPAENYKNTQPIMDTDGSYFVYSKLNVQKSNWEAGNTFTCSVLHEGLHNHHTEKSLSHSPGK
light: QSVLTQPPSASGTPGQRVTISCTGSSSNIGAGYDVHWYQQLPGTAPKLLIYSNNERPSGVPDRFSGSKSGTSASLAISGLRSEDEADYYCAAWDDSLNGPVFGGGTKLTVLGQPKSSPSVTLFPPSSEELETNKATLVCTITDFYPGVVTVDWKVDGTPVTQGMETTQPSKQSNNKYMASSYLTLTARAWERHSSYSCQVTHEGHTVEKSLSRADCS
notes: mIgG1, Lambda
